Our source for the Kd values is paper PMC9908899, “TRIM40 is a pathogenic driver of inflammatory bowel disease subverting intestinal barrier integrity” (Nature Communications, 2023).

This test addresses T1, ROCK1 kinase domain (residue 1-415) protein (human, UniProt Q13464 1-415).
T1 construct: ROCK1 kinase domain, residues 1-415, expressed in Sf9 cells; source: Spodoptera frugiperda cells (Sf9)
In words: SPR; Biacore T200; ROCK1 kinase domain immobilised on CM5 chip by amine coupling (3400 RU); full-length TRIM40 injected at eight concentrations, 30 μl/min, HBS-EP+ buffer (10 mM HEPES, 150 mM NaCl, 3 mM EDTA, 0.05% P20), 25 °C. Particulars: both partners purified. On the technique in general: Surface plasmon resonance follows binding to a sensor surface in real time, without labels.

T1 sequence (Q13464 1-415): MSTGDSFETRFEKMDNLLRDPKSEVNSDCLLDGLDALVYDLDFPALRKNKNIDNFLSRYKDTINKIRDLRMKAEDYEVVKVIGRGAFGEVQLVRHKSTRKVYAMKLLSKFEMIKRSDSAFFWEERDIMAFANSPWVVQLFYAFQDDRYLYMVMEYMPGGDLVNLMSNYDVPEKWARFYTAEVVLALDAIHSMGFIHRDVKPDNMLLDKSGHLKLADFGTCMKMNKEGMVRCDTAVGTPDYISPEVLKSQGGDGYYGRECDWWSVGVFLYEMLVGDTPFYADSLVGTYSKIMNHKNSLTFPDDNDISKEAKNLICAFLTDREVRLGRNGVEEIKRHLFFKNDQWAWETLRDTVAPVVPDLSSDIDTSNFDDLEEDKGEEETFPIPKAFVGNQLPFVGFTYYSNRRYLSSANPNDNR

B1: Full length TRIM40 protein (recombinant, for SPR) (natural protein, human, UniProt Q6P9F5 1-258, looked up)
chain: MIPLQKDNQEEGVCPICQESLKEAVSTNCGHLFCRVCLTQHVEKASASGVFCCPLCRKPCSEEVLGTGYICPNHQKRVCRFCEESRLLLCVECLVSPEHMSHHELTIENALSHYKERLNRRSRKLRKDIAELQRLKAQQEKKLQALQFQVDHGNHRLEAGPESQHQTREQLGALPQQWLGQLEHMPAEAARILDISRAVTQLRSLVIDLERTAKELDTNTLKNAGDLLNRSAPQKLEVIYPQLEKGVSELLLQPPQKL
notes: full length TRIM40 expressed in E. coli BL21 (DE3); source: Escherichia coli BL21 (DE3)
Usually Kd stands for the free concentration of one partner at which half of the binding sites on the other are occupied at equilibrium, for simple one-to-one binding. Low values mean tighter binding, high ones weaker binding. The molecule B1 gave a Kd of 2250 nM.
